Patent publication US20180022822A1, “NOVEL ANTI-FIBROBLAST ACTIVATION PROTEIN (FAP) BINDING AGENTS AND USES THEREOF” (Mabimmune Diagnostics AG, priority 2016, published 2018)

Tests used:
BSA = target: T1, BSA (Bos taurus, UniProt P02769); test: ELISA control binding to BSA; set-up: species or system bovine
T1 construct: purchased Sigma-Aldrich
Procedure: (§1) ELISA assays were performed with varying antibody concentrations to validate the binding of the exemplary antibodies of the present invention to FAP and to be able to determine their half maximal effective concentration (EC50). For the exemplary recombinant human NI-206-18H2, NI-206-20A8, NI-206-6D3, ‘NI-206-14C5, NI-206-34C11, NI-206.82C2, NI-206.59B4, NI-206.22F7, NI-206.27E8, NI-206.12G4 and NI-206.17A6 antibodies, 96-well microplates (Costar, Corning, USA) were coated with FAP, with a mixture of the 3 peptides or with BSA (Sigma-Aldrich, Buchs, Switzerland) diluted to a concentration of 5 μg/ml in carbonate ELISA coating buffer (15 mM Na2CO3, 35 mM NaHCO3, pH 9.4) for the direct ELISA. For the capture ELISA, the microplates were coated with mouse anti-His monoclonal antibody (Clontech) diluted to a concentration of 3 μg/ml in PBS, the plates were then blocked, FAP or BSA were diluted to a concentration of 2 μg/ml in PBS and added to the plates to be captured. The binding efficiency of the antibodies was then tested.

[1] = target: T2, directly coated FAP (FAP) (Homo sapiens, UniProt Q12884); test: direct ELISA on directly coated FAP; type: binding; conditions: ELISA, varying antibody concentrations
T2 sequence (Q12884 1-760): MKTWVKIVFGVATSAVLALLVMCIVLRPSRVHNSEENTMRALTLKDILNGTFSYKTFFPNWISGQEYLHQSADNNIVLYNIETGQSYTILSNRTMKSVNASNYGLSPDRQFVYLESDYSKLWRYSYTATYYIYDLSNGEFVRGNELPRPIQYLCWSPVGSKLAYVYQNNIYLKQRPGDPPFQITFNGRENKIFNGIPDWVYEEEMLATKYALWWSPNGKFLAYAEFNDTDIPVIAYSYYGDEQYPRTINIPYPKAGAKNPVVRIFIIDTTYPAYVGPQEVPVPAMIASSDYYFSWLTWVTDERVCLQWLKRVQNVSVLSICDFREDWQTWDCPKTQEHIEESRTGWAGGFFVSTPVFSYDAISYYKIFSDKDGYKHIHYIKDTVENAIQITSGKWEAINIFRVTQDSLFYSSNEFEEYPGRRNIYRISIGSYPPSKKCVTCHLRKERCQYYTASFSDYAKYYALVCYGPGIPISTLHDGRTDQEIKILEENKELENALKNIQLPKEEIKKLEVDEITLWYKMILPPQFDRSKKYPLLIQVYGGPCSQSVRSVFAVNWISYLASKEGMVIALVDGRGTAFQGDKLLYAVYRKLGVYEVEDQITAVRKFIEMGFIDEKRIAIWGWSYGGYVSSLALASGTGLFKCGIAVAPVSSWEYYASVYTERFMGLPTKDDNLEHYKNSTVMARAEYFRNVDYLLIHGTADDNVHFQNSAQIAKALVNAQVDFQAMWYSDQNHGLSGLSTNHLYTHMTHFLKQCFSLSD
Procedure: as §1
(§2) The EC50 values were estimated by a non-linear regression using GraphPad Prism (San Diego, USA) software. […] The binding of NI-206.12G4 towards sFAP was not tested.

[2] = target: T3, recombinant human FAP (sFAP, FAP) versus CD26 and unrelated human antigens (A-N) (Homo sapiens, UniProt Q12884); test: binding specificity ELISA against FAP versus unrelated human antigens; conditions: detection antibody at 20, 4 and 0.8 nM
T3 sequence (Q12884 26-760 limits assumed): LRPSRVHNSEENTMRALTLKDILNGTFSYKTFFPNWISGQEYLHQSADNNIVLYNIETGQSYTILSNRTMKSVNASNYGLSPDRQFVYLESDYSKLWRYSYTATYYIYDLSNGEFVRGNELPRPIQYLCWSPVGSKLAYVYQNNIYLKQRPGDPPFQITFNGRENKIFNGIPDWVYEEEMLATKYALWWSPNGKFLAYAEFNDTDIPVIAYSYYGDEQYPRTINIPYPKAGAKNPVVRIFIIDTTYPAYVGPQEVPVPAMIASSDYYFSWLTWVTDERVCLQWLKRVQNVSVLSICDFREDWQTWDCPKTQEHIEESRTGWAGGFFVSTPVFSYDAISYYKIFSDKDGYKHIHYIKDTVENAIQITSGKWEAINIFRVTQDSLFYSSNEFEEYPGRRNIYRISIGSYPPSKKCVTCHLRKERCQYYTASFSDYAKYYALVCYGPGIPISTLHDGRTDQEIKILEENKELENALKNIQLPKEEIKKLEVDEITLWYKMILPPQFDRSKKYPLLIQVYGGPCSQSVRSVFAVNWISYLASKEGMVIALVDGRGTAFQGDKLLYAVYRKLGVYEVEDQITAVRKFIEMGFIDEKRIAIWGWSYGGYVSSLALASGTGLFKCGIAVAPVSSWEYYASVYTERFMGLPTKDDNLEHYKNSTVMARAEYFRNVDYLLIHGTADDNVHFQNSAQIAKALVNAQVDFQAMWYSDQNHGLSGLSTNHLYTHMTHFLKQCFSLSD
Procedure: A mouse anti-6×-histidine tag antibody (Clonetech) was coated at a concentration of 3 μg/ml in PBS to a 96 well ELISA plate, the plates were then blocked with 5% BSA in PBS, and enzymatically active recombinant human FAP with an N-terminus 6× histidine tag was added to the plates to be captured. The binding efficiency of NI-206.82C2, NI-206.18H2, NI-206.20A8 and NI-206.6D3 (at 20 nM, 4 nM, and 0.8 nM) against sFAP and of NI-206.18H2, NI-206.20A8 and NI-206.6D3 against FAP as well was then tested by 1 hour incubation, followed by washing with PBS and detection with an HRP-labelled goat anti-human antibody (Jackson Immunoresearch) using a colormetric assay. To assess NI-206.82C2, NI-206.18H2, NI-206.20A8 and NI-206.6D3 binding other targets, recombinant human CD26 (only in case of NI-206.82C2) and fourteen other unrelated recombinant human proteins (A-N) were individually added to a 96-well ELISA plate in triplicate, and the binding efficacy of NI-206.82C2 was evaluated. (FIG. 7A to D)

[3] = system: directly coated FAP peptides mixture (cFAP); test: direct ELISA on coated mixture of FAP peptides; type: binding, human; conditions: peptides 378-392, 622-636, 721-736
Procedure: as §1, §2

captured FAP (sFAP) = target: T4, captured FAP (sFAP) (Homo sapiens, UniProt Q12884); test: capture ELISA, FAP captured via his-tag with coated anti-His antibody; type: binding; conditions: ELISA, varying antibody concentrations
T4 sequence (Q12884 1-760): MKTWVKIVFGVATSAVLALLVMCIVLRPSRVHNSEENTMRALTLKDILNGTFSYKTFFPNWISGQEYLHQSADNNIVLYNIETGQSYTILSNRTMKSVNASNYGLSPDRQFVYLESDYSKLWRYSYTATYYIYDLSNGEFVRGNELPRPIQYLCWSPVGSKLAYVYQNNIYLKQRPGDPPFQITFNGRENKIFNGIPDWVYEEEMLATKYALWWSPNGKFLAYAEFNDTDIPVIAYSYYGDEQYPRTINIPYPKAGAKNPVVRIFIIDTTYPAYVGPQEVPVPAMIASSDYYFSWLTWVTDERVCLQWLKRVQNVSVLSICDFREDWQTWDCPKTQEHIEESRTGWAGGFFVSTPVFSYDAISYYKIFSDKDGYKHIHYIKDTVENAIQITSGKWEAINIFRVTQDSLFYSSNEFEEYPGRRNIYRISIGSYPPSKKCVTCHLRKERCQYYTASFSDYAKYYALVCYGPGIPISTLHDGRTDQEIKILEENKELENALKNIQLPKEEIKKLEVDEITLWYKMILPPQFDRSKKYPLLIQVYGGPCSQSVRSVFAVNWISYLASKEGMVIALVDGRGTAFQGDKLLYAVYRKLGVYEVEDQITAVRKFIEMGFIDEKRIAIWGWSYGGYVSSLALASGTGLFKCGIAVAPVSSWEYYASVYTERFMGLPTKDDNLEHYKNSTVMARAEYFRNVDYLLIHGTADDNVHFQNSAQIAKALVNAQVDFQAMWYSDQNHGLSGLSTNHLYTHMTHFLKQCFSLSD
Procedure: as §1, §2

T1 sequence (P02769 25-607): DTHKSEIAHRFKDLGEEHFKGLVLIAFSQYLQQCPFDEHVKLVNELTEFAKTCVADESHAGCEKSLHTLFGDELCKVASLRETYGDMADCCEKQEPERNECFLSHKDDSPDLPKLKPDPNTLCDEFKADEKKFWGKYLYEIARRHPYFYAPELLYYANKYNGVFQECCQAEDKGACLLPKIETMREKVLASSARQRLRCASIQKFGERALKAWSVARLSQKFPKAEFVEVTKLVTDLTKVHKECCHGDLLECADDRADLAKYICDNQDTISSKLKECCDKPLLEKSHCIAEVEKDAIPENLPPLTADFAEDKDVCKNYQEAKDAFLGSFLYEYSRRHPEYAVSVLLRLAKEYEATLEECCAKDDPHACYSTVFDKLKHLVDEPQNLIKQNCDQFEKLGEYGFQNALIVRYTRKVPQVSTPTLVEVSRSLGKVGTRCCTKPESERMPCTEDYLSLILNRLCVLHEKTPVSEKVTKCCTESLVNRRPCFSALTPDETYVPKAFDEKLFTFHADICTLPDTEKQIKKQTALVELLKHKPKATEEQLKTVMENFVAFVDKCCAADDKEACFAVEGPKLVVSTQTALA

binding to BSA (BSA): does not bind
binding to the directly coated FAP [1]: binds less efficiently
colorimetric ELISA signal against FAP versus panel of unrelated human antigens [2]: significantly greater
EC50 to the directly coated FAP peptides mixture (cFAP) [3]: did not show any binding
binding to the captured FAP (captured FAP (sFAP)): binds less efficiently
B1: NI-206.20A8: human-derived recombinant anti-FAP antibody; VH SEQ ID NO: 45, VL SEQ ID NO: 47 (antibody, listed as Homo sapiens, V domains shown)
VH: EVQLVESGGGLVQPGGSLKLSCAGSGLDLSASAVHWVRQASGKGLEWIGRIRSKPNHYATTYLASVRGRFILSRDDSENTAYLQMNSLRTEDTAVYYCRIGILNSDHWGRGTLVTVSS
VL: QSVLTQPPSASGTPGQTVIISCSGSSSNLGRKTLNWYQQLPGAAPKLLIFKNDQRASGVPDRFSASKSGTSASLTISGLQSDDEADYYCGTWDDSLDNWVFGGGTKVTVL
